Changes are numbered by the printed parent chain. Names and notes keep the numbering of the source.
B1: IFNAR2 EC H78A/N100A mutant (receptor)
chain: MASYDSPDYTDESCTFKISLRNFRSILSWELKNHSIVPTHYTLLYTIMSKPEDLKVVKNCANTTRSFCDLTDEWRSTAEAYVTVLEGFSGNTTLFSCSHAFWLAIDMSFEPPEFEIVGFTNHINVMVKFPSIVEEELQFDLSLVIEEQSEGIVKKHKPEIKGNMSGNFTYIIDKLIPNTNYCVSVYLEHSDEQAVIKSPLKCTLLPPGQESEFSZ
notes: also called R2 H78A/N100A; MIFNAR2 EC
B2: IFNAR2 EC H78A/N100D mutant (receptor)
chain: B1 chain with A100D
B3: interferon beta (wild type, glycosylated, produced in CHO) (ligand, human, UniProt P01574 22-187, looked up)
chain: MSYNLLGFLQRSSNFQCQKLLWQLNGRLEYCLKDRMNFDIPEEIKQLQQFQKEDAALTIYEMLQNIFAIFRQDSSSTGWNETIVENLLANVYHQINHLKTVLEEKLEKEDFTRGKLMSSLHLKRYYGRILHYLKAKEYSHCAWTIVRVEILRNFYFINRLTGYLRN
modifications: glycosylated (site not stated)
notes: also called IFNβ; IFN-β

Columns and labels:
[1] = biological target: B3; assay: RifS, IFNAR2-EC immobilised through antibodies
[2] = biological target: B3; assay: RifS, IFNAR2-EC immobilised through antibodies, 500 mM NaCl, pH 7.4
[3] = biological target: B3; assay: cell-based or functional assay
[4] = biological target: T1, wild type IFNAR2-EC (extracellular domain of human IFNAR2) (human, UniProt P48551 28-237); assay: RifS, IFNAR2-EC immobilised through antibodies, 500 mM NaCl, pH 7.4
T1 construct: Expressed in E. coli, non-glycosylated; also called wt; WT protein
T1 sequence: B1 chain with A78H, A100N

**Q.** With B1 as the binder, how does the “fold higher affinity than wild type” value [1] read?
**A.** The value was roughly 100 fold.

**Q.** And the Kd [2]?
**A.** Its Kd is roughly 0.03 nM.

**Q.** B2 was tested. Which “IC50 (read off the curve)” value [3] did it give?
**A.** Its value is roughly 0.4 nM.

**Q.** With B3 as the binder, how does the Kd [4] read?
**A.** The Kd was roughly 3 nM.
